According to paper PMC8534323, “Proteinous Components of Neutrophil Extracellular Traps Are Arrested by the Cell Wall Proteins of Candida albicans during Fungal Infection, and Can Be Used in the Host Invasion” (Cells, 2021):

B1: Als3 (agglutinin-like sequence protein 3), isolated from the surface of C. albicans (natural protein)
chain: KTITGVFNSFNSLTWSNAATYNYKGPGTPTWNAVLGWSLDGTSASPGDTFTLNMPCVFKFTTSQTSVDLTAHGVKYATCQFQAGEEFMTFSTLTCTVSNTLTPSIKALGTVTLPLAFNVGGTGSSVDLEDSKCFTAGTNTVTFNDGGKKISINVDFERSNVDPKGYLTDSRVIPSLNKVSTLFVAPQCANGYTSGTMGFANTYGDVQIDCSNIHVGITKGLNDWNYPVSSESFSYTKTCSSNGIFITYKNVPAGYRPFVDAYISATDVNSYTLSYANEYTCAGGYWQRAPFTLRWTGYRNSDAGSNGIVIVATTRTVTDSTTAVTTLPFDPNRDKTKTIEILKPIPTTTITTSYVGVTTSYSTKTAPIGETATVIVDIPYHTTTTVTSKWTGTITSTTTHTNPTDSIDTVIVQVPSPNPTVTTTEYWSQSFATTTTITGPPGNTDTVLIREPPNHTVTTTEYWSESYTTTSTFTAPPGGTDSVIIKEPPNPTVTTTEYWSESYTTTTTVTAPPGGTDTVIIREPPNHTVTTTEYWSQSYTTTTTVIAPPGGTDSVIIREPPNPTVTTTEYWSQSYATTTTITAPPGETDTVLIREPPNHTVTTTEYWSQSYATTTTITAPPGETDTVLIREPPNHTVTTTEYWSQSYTTTTTVIAPPGGTDSVIIKEPPNPTVTTTEYWSQSYATTTTITAPPGETDTVLIREPPNHTVTTTEYWSQSYATTTTITAPPGETDTVLIREPPNHTVTTTEYWSQSFATTTTVTAPPGGTDTVIIREPPNHTVTTTEYWSQSFATTTTIIAPPGETDTVLIREPPNPTVTTTEYWSQSYTTATTVTAPPGGTDTVIIYDTMSSSEISSFSRPHYTNHTTLWSTTWVIETKTITETSCEGDKGCSWVSVSTRIVTIPNNIETPMVTNTVDTTTTESTLQSPSGIFSESGVSVETESSTFTTAQTNPSVPTTESEVVFTTKGNNGNGPYESPSTNVKSSMDENSEFTTSTAASTSTDIENETIATTGSVEASSPIISSSADETTTVTTTAESTSVIEQQTNNNGGGNAPSATSTSSPSTTTTANSDSVITSTTSTNQSQSQSNSDTQQTTLSQQMTSSLVSLHMLTTFDGS
notes: source: purified from C. albicans ATCC 10231 hyphae cell wall extract (β-1,3-glucanase and 2-mercaptoethanol; MonoQ, Superdex-200)
B2: human neutrophil elastase (HNE) (enzyme, UniProt P08246 30-267, looked up)
chain: IVGGRRARPHAWPFMVSLQLRGGHFCGATLIAPNFVMSAAHCVANVNVRAVRVVLGAHNLSRREPTRQVFAVQRIFENGYDPVNLLNDIVILQLNGSATINANVQVAQLPAQGRRLGNGVQCLAMGWGLLGRNRGIASVLQELNVTVVTSLCRRSNVCTLVRGRQAGVCFGDSGSPLVCNGLIHGIASFVRGGCASGLYPDAFAPVAQFVNWIDSIIQRSEDNPCPHPRDPDPASRTH
modifications: sulfo-SBED crosslinker in the cross-linking experiment; in flow cytometry preincubated or not with 10 µM N-(Methoxysuccinyl)-Ala-Ala-Pro-Val-chloromethyl ketone
notes: source: bought: Biocentrum (Kraków, Poland)
B3: Phosphoglycerate mutase 1 (Gpm1), recombinant (enzyme)
chain: MPKLVLVRHGQSEWNEKNLFTGWVDVRLSETGQKEAKRAGELLKEAGINVDVLHTSKLSRAIQTANIALDAADQLYVPVKRSWRLNERHYGALQGKDKAQTLEAYGQEKFQIWRRSFDVPPPKIDPKDEYSQVGDRRYADVDPAVVPLTESLALVIDRLLPYWQDEIAGDLLAGKVVLIAAHGNSLRALVKHLDNISDEDIAGLNIPTGIPLVYELDENLKPTKPSYYLDPEAAAAGAAAVAAQGQKK
B4: triosephosphate isomerase 1 (Tpi1) (enzyme, UniProt Q9P940 1-248, looked up)
chain: MARQFFVGGNFKANGTKQQITSIIDNLNKADLPKDVEVVICPPALYLGLAVEQNKQPTVAIGAQNVFDKSCGAFTGETCASQILDVGASWTLTGHSERRTIIKESDEFIAEKTKFALDTGVKVILCIGETLEERKGGVTLDVCARQLDAVSKIVSDWSNIVVAYEPVWAIGTGLAATPEDAEETHKGIRAHLAKSIGAEQAEKTRILYGGSVNGKNAKDFKDKANVDGFLVGGASLKPEFVDIIKSRL
notes: source: purified from C. albicans ATCC 10231 hyphae cell wall extract (MonoQ, Superdex-200); for cross-linking: endogenous, in that extract
B5: enolase (Eno1) (enzyme)
chain: MSYATKIHARYVYDSRGNPTVEVDFTTDKGLFRSIVPSGASTGVHEALELRDGDKSKWLGKGVLKAVANVNDIIAPALIKAKIDVVDQAKIDEFLLSLDGTPNKSKLGANAILGVSLAAANAAAAAQGIPLYKHIANISNAKKGKFVLPVPFQNVLNGGSHAGGALAFQEFMIAPTGVSTFSEALRIGSEVYHNLKSLTKKKYGQSAGNVGDEGGVAPDIKTPKEALDLIMDAIDKAGYKGKVGIAMDVASSEFYKDGKYDLDFKNPESDPSKWLSGPQLADLYEQLISEYPIVSIEDPFAEDDWDAWVHFFERVGDKIQIVGDDLTVTNPTRIKTAIEKKAANALLLKVNQIGTLTESIQAANDSYAAGWGVMVSHRSGETEDTFIADLSVGLRSGQIKTGAPARSERLAKLNQILRIEEELGSEAIYAGKDFQKASQL
notes: source: purified from the cytosolic fraction of C. albicans cells (MonoQ, MonoS); for cross-linking: endogenous, in the cell wall protein extract of C. albicans hyphae

Columns and labels:
Settings in all cases: both partners purified
histone H4 = histone H4 (human, UniProt P62805 1-103); experiment: ELISA-like microplate ligand-binding assay
[1] = target: B1; experiment: SPR
lactotransferrin (LF) = target: T1, lactotransferrin (LF) (human, UniProt P02788 20-710, NHS-fluorescein label in flow cytometry; sulfo-SBED crosslinker in the cross-linking experiment); experiment: SPR
T1 construct: also called lactoferrin; source: bought: Sigma
T1 sequence (P02788 20-710): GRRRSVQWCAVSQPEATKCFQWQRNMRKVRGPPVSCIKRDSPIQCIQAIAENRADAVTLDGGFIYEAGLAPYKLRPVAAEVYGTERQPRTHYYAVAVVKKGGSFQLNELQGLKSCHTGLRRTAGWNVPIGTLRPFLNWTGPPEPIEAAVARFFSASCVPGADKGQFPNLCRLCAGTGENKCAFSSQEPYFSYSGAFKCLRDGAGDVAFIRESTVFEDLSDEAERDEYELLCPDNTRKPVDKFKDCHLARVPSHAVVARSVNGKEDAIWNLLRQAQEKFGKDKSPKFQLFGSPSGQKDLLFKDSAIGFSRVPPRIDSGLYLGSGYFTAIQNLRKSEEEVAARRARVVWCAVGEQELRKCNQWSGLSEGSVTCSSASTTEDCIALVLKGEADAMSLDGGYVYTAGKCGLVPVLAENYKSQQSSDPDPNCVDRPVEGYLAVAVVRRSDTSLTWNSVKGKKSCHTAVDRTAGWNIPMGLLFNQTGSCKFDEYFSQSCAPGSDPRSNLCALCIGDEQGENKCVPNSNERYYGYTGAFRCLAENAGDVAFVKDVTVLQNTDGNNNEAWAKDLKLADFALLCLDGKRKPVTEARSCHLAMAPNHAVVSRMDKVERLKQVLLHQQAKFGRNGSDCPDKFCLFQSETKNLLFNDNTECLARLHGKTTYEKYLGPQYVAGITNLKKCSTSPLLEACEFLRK

Binder | Kd (histone H4) | also measured
B1 | 820 ± 330 nM | 
B2 |  | Kd [1]: 65 ± 5.3 nM
B3 | 1900 ± 414 nM | 
B4 |  | Kd (lactotransferrin (LF)): 163 ± 0.2 nM
B5 | 384 ± 130 nM | 
